Measured values as given in paper PMC8528861, “Structural and functional analysis of target recognition by the lymphocyte adaptor protein LNK” (Nature Communications, 2021).
Where no end group is shown, it is not given here. [ ]: non-standard residue; d: D form. pY = N[C@@H](Cc1ccc(OP(=O)(O)O)cc1)C(=O)O

B1: MPL pY631 phosphopeptide (peptide)
peptide: LPLS[pY]WQQP
notes: MPL (TPO receptor), intracellular site Y631; also called TPOR pY631
B2: EPOR pY454 phosphopeptide (peptide)
peptide: PHLK[pY]LYLVVS
modifications: also: phosphotyrosine at 454 (Y5 or Y7)
notes: EPOR, intracellular site Y454
B3: JAK2 pY813 peptide mutant +1R (peptide)
chain: FTPD[pY]RLLTEND
B4: JAK2 pY813 phosphopeptide (12-mer) (peptide)
peptide: FTPD[pY]ELLTEND
notes: JAK2, stretch around Y813; also called WT pY813 peptide

How the values were obtained:
[1] = molecular target: T1, M. musculus LNK SH2 domain (residues 324–446), wild type (mouse, UniProt O09039 324-446); assay: SPR; competition: biotinylated IL6ST pY757 peptide immobilised on a streptavidin chip; 0.1–0.5 μM WT LNK SH2 domain pre-incubated with phosphopeptide and flowed over; 10 mM HEPES pH 7.4, 150 mM NaCl, 3.4 mM EDTA, 0.005% Tween 20; response normalised to LNK only, IC50 fit; conditions: both partners purified
T1 construct: LNK (SH2B3), mouse, SH2 domain with N-terminal helix, residues 324-446; vector pET-50b(+); also called WT LNK SH2; SH2B3 SH2 domain; source: E. coli (tuner (DE3), BL21(DE3) or C43), purified (His-Tag resin, TEV cleavage, SEC); not shown: NusA, N-terminal, cleaved

[2] = molecular target: T1, M. musculus LNK SH2 domain (residues …); assay: as above; conditions: both partners purified; remark: listed apart in the source

T1 sequence (O09039 324-446): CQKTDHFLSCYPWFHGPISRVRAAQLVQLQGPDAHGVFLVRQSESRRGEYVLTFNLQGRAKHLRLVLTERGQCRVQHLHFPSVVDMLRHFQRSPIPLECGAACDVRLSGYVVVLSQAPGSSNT

Binder	IC50 [1]	IC50 [2]
B1	> 10000 nM	
B2	661 nM	
B3		> 5000 nM
B4	138 nM	60 nM
